Key:
[1] = target: T1, soluble adenylyl cyclase chimera IC1 IIC2 -L3 (C1a of type I adenylyl cyclase, residues 271-484, linked to C2a of type II adenylyl cyclase, residues 821-1090) (UniProt P19754+P26769); experiment: Adenylyl cyclase activity of 150,000 g supernatant from E. coli expressing IC1 IIC2 -L3; format: biochemical, mammalian
T1 construct: IC1a includes residues 271-484 of type I adenylyl cyclase; IIC2a includes residues 821-1090 of type II adenylyl cyclase; made in house; host or cells: E. coli TP2000 (150,000 g supernatant)
Protocol: FIG. 2--Enzyme activity of chimeras.
Data shown are representative of at least two studies.
E. coli that contained the desired plasmids were grown in LB plus 50 μM carbenicillin to OD600 =0.3. Isopropyl-β-D-thiogalactopyranoside(100 μM) and chloramphenicol (0.5 μM) were added to induce expression of adenylyl cyclase for 12 hours. Bacteria were then collected by centrifugation at 4° C. and lysed by incubation at 4° C. for 30 min in 20 mM Tris-HCl (pH 8.0), 1 mM EDTA, 2 mM dithiothreitol (DTT) and protease inhibitors with 0.1 mg/ml of lysozyme. The suspension was sonicated briefly (3×20 sec) during incubation. The lysate was centrifuged (4° C.) at 150,000×g for 30 min, and the supernatant was recovered.
The inventors examined adenylyl cyclase activity in vitro in 150,000 g supernatant fractions from E. coli […] transformed with the various constructs. […] Ca^2+ -calmodulin had no detectable effect on activity, and lysates from cells expressing either IC1 or IIC2 had little adenylyl cyclase activity.
However, the maximal stimulatory effect of the G protein α subunit exceeded that of forskolin (FIG. 4). […] Synergistic activation of the enzyme was thus not due to alternation of apparent substrate affinity.

[2] = target: IC1 (C1a domain of type I adenylyl cyclase, construct of Example 5) (Bos taurus (Bovine))
[3] = target: IC1 (C1a domain of type I adenylyl cyclase, construct of Example 5) (Bos taurus (Bovine)); experiment: estimated from the adenylyl cyclase activity of 0.1 µM IC1 titrated with IIC2 without activator (FIG. 13A, model of FIG. 15); no direct binding assay
[4] = target: IC1 (C1a domain of type I adenylyl cyclase, construct of Example 5) (Bos taurus (Bovine)); remark: listed apart in the source
IC1 IIC2 -L3 [5] = target: IC1 IIC2 -L3
[6] = target: mixture of IC1 and IIC2 (non-covalent complex of the C1 domain of type I and the C2 domain of type II adenylyl cyclase) (Bos taurus (Bovine); Rattus norvegicus (Rat))
IC1 IIC2 -L3 [7] = target: IC1 IIC2 -L3; remark: listed apart in the source
[8] = target: mixture of IC1 and IIC2 (non-covalent complex of the C1 domain of type I and the C2 domain of type II adenylyl cyclase) (Bos taurus (Bovine); Rattus norvegicus (Rat)); experiment: equilibrium constant of the model of FIG. 15, derived from the EC50 of activated Gsα for adenylyl cyclase activity of mixed IC1 and IIC2; no direct binding assay

T1 sequence (P19754+P26769 fused, change not shown): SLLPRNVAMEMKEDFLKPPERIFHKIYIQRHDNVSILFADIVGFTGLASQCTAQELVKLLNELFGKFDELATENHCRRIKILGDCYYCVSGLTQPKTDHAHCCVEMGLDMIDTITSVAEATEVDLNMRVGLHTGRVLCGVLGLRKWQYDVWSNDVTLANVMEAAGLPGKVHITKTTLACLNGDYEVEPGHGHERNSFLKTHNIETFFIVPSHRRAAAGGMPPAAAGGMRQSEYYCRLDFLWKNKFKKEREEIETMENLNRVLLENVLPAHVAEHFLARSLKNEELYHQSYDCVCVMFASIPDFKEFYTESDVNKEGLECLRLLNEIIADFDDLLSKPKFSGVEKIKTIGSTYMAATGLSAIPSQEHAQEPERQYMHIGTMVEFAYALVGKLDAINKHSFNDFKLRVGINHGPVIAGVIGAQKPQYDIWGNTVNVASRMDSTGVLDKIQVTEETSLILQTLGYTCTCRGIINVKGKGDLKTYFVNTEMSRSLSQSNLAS

`C=CC1(C)CC(=O)C2C3(C)CCCC(C)(C)C3C(O)C(OC(C)=O)C2(C)O1` (stereo not drawn) [1,9-dideoxyforskolin] was tested, and the “stimulation of adenylyl cyclase activity” value ([1]; 150,000 g supernatant, FIG. 3) was “failed to stimulate”.
For `Nc1ncnc2c1ncn2[C@H]1C[C@H](OP(=O)(O)O)[C@@H](CO)O1` [2'-deoxy-3'-AMP], the “inhibition of adenylyl cyclase activity (P-site inhibitor), mode” value ([1]; forskolin-activated enzyme, FIG. 7) was “inhibited noncompetitively”.
With “IIC2 (C2 domain of type II adenylyl cyclase, construct of Example 5) (enzyme)” the apparent EC50 for IIC2, adenylyl cyclase activity with 8 nM IC1, 50 µM FSK and 10 µM GTP[γS]-Gsα [2] was 15 nM, the apparent EC50 for IIC2, adenylyl cyclase activity with 8 nM IC1 and 50 µM FSK [2] was 190 nM and the Kd [3] was greater than 10 µM. The EC50 for IIC2, adenylyl cyclase activity with IC1 in the absence of activators [4] was greater than 10 µM.
“wild-type alpha subunit of the G protein (Gsα)” gave an adenylyl cyclase activity of 150,000 g supernatant (IC1 IIC2 -L5) of 50 fold, an adenylyl cyclase activity of 150,000 g supernatant (IC1 IIC2 -L3 [5]) of 50 fold and an adenylyl cyclase activity of 150,000 g supernatant (IC1 IIC2 -L1) of 50 fold. It also gave an adenylyl cyclase activity of purified mixed fragments (8 nM IC1, 6.6 µM IIC2) against the concentration of activated Gsα [6] greater than 100 fold, an EC50 for activation of adenylyl cyclase activity (IC1 IIC2 -L3 [7]) of 1 µM and a K4 [8] of 0.4 µM.

Source: patent US6107076A, “Soluble mammalian adenylyl cyclase and uses therefor” (Board of Regents, The University of Texas System, priority 1996, dated 2000)
